Publication PMC3020801, “A new lysozyme from the eastern oyster, Crassostrea virginica, and a possible evolutionary pathway for i-type lysozymes in bivalves from host defense to digestion” (BMC Evolutionary Biology, 2010)

Biological target: the molecule itself
Assay: SDS-PAGE under non-reducing conditions; 12.5% acrylamide/bis gel, reduced and non-reduced conditions, Coomassie blue R-250; a second band of >100 kDa only under non-reduced conditions

B1: cv-lysozyme 3 (enzyme, Crassostrea virginica)
chain: SDAPCTNSGGVCQDDHLACHNGHYQSGLCTGGAHRRCCLTSASHTGSFSTGIVSQQCLQCICNVESGCKAIGCHFDVNSDSCGYFQIKEGYWHDCGSPGSSWRSCANDLACASKCVQAYMSRYIGFSGCSHSCESYARIHNGGPAGCKHTNTLGYWSHVHAQGCSHNS
notes: cv-lysozyme 3, Crassostrea virginica, tryptic peptide 1-35 of the purified protein; numbers count on: the mature protein; cv-lysozyme 3, tryptic peptide 37-69; cv-lysozyme 3, tryptic peptide 70-88; cv-lysozyme 3, tryptic peptide 89-103; cv-lysozyme 3, tryptic peptide 104-114; cv-lysozyme 3, tryptic peptide 115-122; cv-lysozyme 3, tryptic peptide 123-138; cv-lysozyme 3, tryptic peptide 139-148; …
- binding result: binds
